T1: activin A (Homo sapiens, UniProt P08476)
T1 sequence (P08476 311-426): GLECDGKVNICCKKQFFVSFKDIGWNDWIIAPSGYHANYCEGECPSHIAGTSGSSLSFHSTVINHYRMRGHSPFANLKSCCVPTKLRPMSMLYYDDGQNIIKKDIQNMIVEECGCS

T2: GDF8 (Homo sapiens, UniProt O14793)
T2 sequence (O14793 267-375): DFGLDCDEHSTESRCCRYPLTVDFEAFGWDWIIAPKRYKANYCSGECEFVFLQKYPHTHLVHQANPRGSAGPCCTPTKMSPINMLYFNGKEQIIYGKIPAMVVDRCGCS

T3: activin B (Homo sapiens, UniProt P09529)
T3 sequence (P09529 293-407): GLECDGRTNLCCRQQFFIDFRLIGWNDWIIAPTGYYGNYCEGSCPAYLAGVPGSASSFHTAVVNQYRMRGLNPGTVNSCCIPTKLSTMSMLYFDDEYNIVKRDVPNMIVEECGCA

T4: GDF11 (Homo sapiens, UniProt O95390)
T4 sequence (O95390 299-407): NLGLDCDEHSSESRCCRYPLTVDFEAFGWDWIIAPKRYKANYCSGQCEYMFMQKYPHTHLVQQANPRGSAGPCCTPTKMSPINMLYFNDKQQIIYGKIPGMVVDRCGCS


Assays:
activin A [1] = target: T1, activin A; assay: Biacore-based binding assay, receptor captured with anti-Fc antibody
Method: (§1) A Biacore™-based binding assay was used to compare ligand binding selectivity of the ALK4-Fc:ActRIIB-Fc heterodimeric complex described above with that of ActRIIB-Fc and ALK4-Fc homodimer complexes. The ALK4-Fc:ActRIIB-Fc heterodimer, ActRIIB-Fc homodimer, and ALK4-Fc homodimer were independently captured onto the system using an anti-Fc antibody. Ligands were injected and allowed to flow over the captured receptor protein. Results are summarized in the table below, in which ligand off-rates (kd) most indicative of effective ligand traps are denoted in bold font.

GDF8 [2] = target: T2, GDF8; assay: as above
Method: as §1

activin B = target: T3, activin B; assay: as above
Method: as §1

GDF11 [3] = target: T4, GDF11; assay: as above
Method: as §1

activin A [4] = target: T1, activin A; assay: Biacore assay, receptor captured with anti-hFc antibody; format: binding
Method: (§2) Binding of certain ActRIIB-Fc proteins and GDF traps to ligands was tested in a Biacore assay.
(§3) The ActRIIB-Fc variants or wild-type protein were captured onto the system using an anti-hFc antibody. Ligands were injected and flowed over the captured receptor proteins.

GDF8 [5] = target: T2, GDF8; assay: as above; format: binding
Method: as §2, §3

GDF11 [6] = target: T4, GDF11; assay: as above; format: binding
Method: as §2, §3

GDF11 [7] = target: T4, GDF11; assay: ActRIIB-Fc affinity for ligand (description); format: binding; conditions: ascertained by Applicants
activin = assay: ActRIIB-Fc affinity for ligand (description); format: binding; conditions: ascertained by Applicants

Row | Koff, Activin A (activin A [4]) [s⁻¹] | Kon, Activin A (activin A [4]) [M⁻¹ s⁻¹] | Koff, GDF8 (GDF8 [5]) [s⁻¹] | Koff, GDF11 (GDF11 [6]) [s⁻¹] | Molecule | also measured
1 | – | – | – | – | ALK4-Fc homodimer: homodimer complex of ALK4-Fc fusion polypeptide (protein, left off: a dimerising Fc or GST, homodimer complex of ALK4-Fc fusion polypeptide) SGPRGVQALLCACTSCLQANYTCETDGACMVSIFNLDGMEHHVRTCIPKVELVPAGKPFYCLSSEDLRNTHCCYTDYCNRIDLRVPSGHLKEPEHPSMWGPVE | ka, Activin A (activin A [1]): 580000 M⁻¹ s⁻¹; kd, Activin A (activin A [1]): 0.012 s⁻¹; ka, GDF8 (GDF8 [2]): 130000 M⁻¹ s⁻¹; kd, GDF8 (GDF8 [2]): 0.0019 s⁻¹; KD, Activin B (activin B): No binding; ka, GDF11 (GDF11 [3]): 4.8e+06 M⁻¹ s⁻¹; kd, GDF11 (GDF11 [3]): 0.0048 s⁻¹
2 | 0.000628 | 7.46e+06 | 0.000209 | – | ActRIIB(R64K 20-129)-hFc: ActRIIB(20-129)-hFc variant with R64K mutation (protein) GRGEAETRECIYYNANWELERTNQSGLERCEGEQDKRLHCYASWKNSSGTIELVKKGCWLDDFNCYDRQECVATEENPQVYFCCCEGNFCNERFTHLPEAGGPEVTYEPPGGGTHTCPPCPAPELLGGPSVFLFPPKPKDTLMISRTPEVTCVVVDVSHEDPEVKFNWYVDGVEVHNAKTKPREEQYNSTYRVVSVLTVLHQDWLNGKEYKCKVSNKALPVPIEKTISKAKGQPREPQVYTLPPSREEMTKNQVSLTCLVKGFYPSDIAVEWESNGQPENNYKTTPPVLDSDGSFFLYSKLTVDKSRWQQGNVFSCSVMHEALHNHYTQKSLSLSPGK | –
3 | – | – | 0.00083 | 0.000439 | ActRIIB(L79D 20-134)-hFc: GDF trap: ActRIIB amino acids 20-134 with L79D substitution fused to human Fc (SEQ ID NO: 46) (protein) GRGEAETRECIYYNANWELERTNQSGLERCEGEQDKRLHCYASWRNSSGTIELVKKGCWDDDFNCYDRQECVATEENPQVYFCCCEGNFCNERFTHLPEAGGPEVTYEPPPTAPTGGGTHTCPPCPAPELLGGPSVFLFPPKPKDTLMISRTPEVTCVVVDVSHEDPEVKFNWYVDGVEVHNAKTKPREEQYNSTYRVVSVLTVLHQDWLNGKEYKCKVSNKALPVPIEKTISKAKGQPREPQVYTLPPSREEMTKNQVSLTCLVKGFYPSDIAVEWESNGQPENNYKTTPPVLDSDGSFFLYSKLTVDKSRWQQGNVFSCSVMHEALHNHYTQKSLSLSPGK | KD, Activin A (activin A [4]): Low binding
4 | – | – | 0.0009 | 0.000274 | ActRIIB(L79E 20-134)-hFc: GDF trap form with a glutamate rather than an aspartate at position 79, human Fc fusion (protein) GRGEAETRECIYYNANWELERTNQSGLERCEGEQDKRLHCYASWRNSSGTIELVKKGCWEDDFNCYDRQECVATEENPQVYFCCCEGNFCNERFTHLPEAGGPEVTYEPPPTAPTGGGTHTCPPCPAPELLGGPSVFLFPPKPKDTLMISRTPEVTCVVVDVSHEDPEVKFNWYVDGVEVHNAKTKPREEQYNSTYRVVSVLTVLHQDWLNGKEYKCKVSNKALPVPIEKTISKAKGQPREPQVYTLPPSREEMTKNQVSLTCLVKGFYPSDIAVEWESNGQPENNYKTTPPVLDSDGSFFLYSKLTVDKSRWQQGNVFSCSVMHEALHNHYTQKSLSLSPGK | KD, Activin A (activin A [4]): Low binding
5 | 0.000346 | 3.34e+06 | – | 6.35e-05 | ActRIIB(A24N 20-134)-hFc: ActRIIB(20-134)-hFc variant with A24N mutation (protein) GRGENETRECIYYNANWELERTNQSGLERCEGEQDKRLHCYASWRNSSGTIELVKKGCWLDDFNCYDRQECVATEENPQVYFCCCEGNFCNERFTHLPEAGGPEVTYEPPPTAPTGGGTHTCPPCPAPELLGGPSVFLFPPKPKDTLMISRTPEVTCVVVDVSHEDPEVKFNWYVDGVEVHNAKTKPREEQYNSTYRVVSVLTVLHQDWLNGKEYKCKVSNKALPVPIEKTISKAKGQPREPQVYTLPPSREEMTKNQVSLTCLVKGFYPSDIAVEWESNGQPENNYKTTPPVLDSDGSFFLYSKLTVDKSRWQQGNVFSCSVMHEALHNHYTQKSLSLSPGK | –
6 | 0.000417 | 5.02e+06 | 0.00018 | – | ActRIIB(P129S, P130R 20-134)-hFc: ActRIIB(20-134)-hFc variant with P129S and P130R mutations (protein) GRGEAETRECIYYNANWELERTNQSGLERCEGEQDKRLHCYASWRNSSGTIELVKKGCWLDDFNCYDRQECVATEENPQVYFCCCEGNFCNERFTHLPEAGGPEVTYEPSRTAPTGGGTHTCPPCPAPELLGGPSVFLFPPKPKDTLMISRTPEVTCVVVDVSHEDPEVKFNWYVDGVEVHNAKTKPREEQYNSTYRVVSVLTVLHQDWLNGKEYKCKVSNKALPVPIEKTISKAKGQPREPQVYTLPPSREEMTKNQVSLTCLVKGFYPSDIAVEWESNGQPENNYKTTPPVLDSDGSFFLYSKLTVDKSRWQQGNVFSCSVMHEALHNHYTQKSLSLSPGK | –
7 | 0.000325 | 6.82e+06 | 4.71e-05 | 2.41e-05 | ActRIIB(R64K 20-134)-hFc: ActRIIB(20-134)-hFc variant with R64K mutation (protein) GRGEAETRECIYYNANWELERTNQSGLERCEGEQDKRLHCYASWKNSSGTIELVKKGCWLDDFNCYDRQECVATEENPQVYFCCCEGNFCNERFTHLPEAGGPEVTYEPPPTAPTGGGTHTCPPCPAPELLGGPSVFLFPPKPKDTLMISRTPEVTCVVVDVSHEDPEVKFNWYVDGVEVHNAKTKPREEQYNSTYRVVSVLTVLHQDWLNGKEYKCKVSNKALPVPIEKTISKAKGQPREPQVYTLPPSREEMTKNQVSLTCLVKGFYPSDIAVEWESNGQPENNYKTTPPVLDSDGSFFLYSKLTVDKSRWQQGNVFSCSVMHEALHNHYTQKSLSLSPGK | –
8 | – | – | – | – | A64 20-134: ActRIIB-Fc, amino acids 20-134 of SEQ ID NO: 1 with alanine at position 64 (protein, Fc fusion partner without entry) GRGEAETRECIYYNANWELERTNQSGLERCEGEQDKRLHCYASWANSSGTIELVKKGCWLDDFNCYDRQECVATEENPQVYFCCCEGNFCNERFTHLPEAGGPEVTYEPPPTAPT | affinity for GDF11 (GDF11 [7]): relatively low affinity; affinity for activin (activin): relatively low affinity

Reference: patent publication US10973880B2, “Compositions and methods for treating pulmonary hypertension” (Acceleron Pharma Inc., priority 2016, dated 2021)
